This note sets out measurements from article PMC11900867.

Test [1] deals with Coxsackievirus B3 (CVB3) 3CD protein (uncleaved 3C^pro-3D^pol) with Cys147Ala, Gly55Ala, Asp58Ala, Val63Ala (coxsackievirus B3 (CVB3)). Briefly: mass photometry.
Test [2] shares this target. Briefly: mass photometry. The source holds these as a separate data set.
Test [3] deals with Coxsackievirus B3 (CVB3) 3C^pro protease, protease-inactive mutant (Cys147Ala) with Gly55Ala, Asp58Ala, Val63Ala (coxsackievirus B3 (CVB3)). Briefly: SEC.
The target is the same in test [4]. Briefly: mass photometry.

Read-outs that look alike come from different tables or passages of the source.

In test [1], “Coxsackievirus B3 (CVB3) 3CD protein (uncleaved 3C^pro-3D^pol) with Cys147Ala, Gly55Ala, Asp58Ala, Val63Ala (enzyme)” returned a stoichiometry N of 2. In test [2], the percent of total counts in the peak of 3CD dimer with one cloverleaf RNA is 19 to 23% and the stoichiometry N was 2.
Regarding “Coxsackievirus B3 (CVB3) 3C^pro protease, protease-inactive mutant (Cys147Ala) with Gly55Ala, Asp58Ala, Val63Ala (enzyme)”, the stoichiometry N in test [3] and in test [4] was 2 in each case.
